Key:
Rep WT [1] = target: T1, Rep WT (Escherichia coli, UniProt P09980 1-673); experiment: SPR; no nucleotide, 5 mM Mg2+; 20 nM Rep; kon 1.03e6 M-1 s-1, koff 2.15e-4 s-1; SPR: 25 mM Tris-HCl pH 7.6, 50 mM NaCl, 5 mM MgCl2, 0.25 mM DTT, 0.2 mM EDTA, 0.005% P20, 20 C; single-molecule: 25 mM Tris-HCl pH 7.9, 10 mM Mg acetate, 50 mM; conditions: protein: recombinant; chain copies: 2; single strand
Rep K28A = Rep K28A (Escherichia coli, UniProt P09980 1-673, K28A); experiment: SPR; 200 uM ATP, dissociation not stimulated; SPR: 25 mM Tris-HCl pH 7.6, 50 mM NaCl, 5 mM MgCl2, 0.25 mM DTT, 0.2 mM EDTA, 0.005% P20, 20 C; single-molecule: 25 mM Tris-HCl pH 7.9, 10 mM Mg acetate, 50 mM; conditions: protein: recombinant; tags: His6; chain copies: 2; single strand
Rep WT [2] = target: T1, Rep WT; experiment: SPR; no nucleotide, 5 mM Mg2+; kon 1.22e7 M-1 s-1, koff 5.91e-3 s-1; SPR: 25 mM Tris-HCl pH 7.6, 50 mM NaCl, 5 mM MgCl2, 0.25 mM DTT, 0.2 mM EDTA, 0.005% P20, 20 C; single-molecule: 25 mM Tris-HCl pH 7.9, 10 mM Mg acetate, 50 mM; conditions: protein: recombinant; chain copies: 2; single strand

TTTTTTTTTTTTTTTTTTTTTTTTTTTTTTTTTTT (ssDNA, 3'-biotin) [3'-bio-dT35]
Kd (Rep WT [1]): 0.2 nM
binding result (Rep K28A): binds

TTTTTTTTTTTTTTT (ssDNA, 3'-biotin) [3'-bio-dT15]
Kd (Rep WT [2]): 0.5 nM

— article PMC10123100, “Single-molecule visualization of stalled replication-fork rescue by the Escherichia coli Rep helicase”
